Test results taken from US10098960B2, “Polymer conjugate” (UCL Business PLC, priority 2015, dated 2018).
Positions count from the first letter of the chain named. In names and notes the source's numbering stands. Blank lines part the entries; values can stand above or below the molecule they belong to.

Key:
[1] = test system: purified IgG from patients with APS in normal human plasma (lupus anticoagulant effect); experiment: LA (Lupus Anticoagulant) dilute Russel Viper Venom (dRVT-plus) coagulometer assay; format: biochemical; conditions: 500 μg/ml antibody and 25 μg/ml DI; IgG from four APS patients; FIGS. 8A-8D
Procedure: LA (Lupus Anticoagulant) Dilute Russel Viper Venom (dRVT-plus) Assay:
Assay reagents were used as described in manufacturer's (Haematex) instructions.
This assay reproduces the “lupus anticoagulant” (LA) effect, a test in which antibodies from serum of patients with APS cause a measurable prolongation of clotting time under specific conditions in vitro. Purified IgG from four patients with APS (shown as FIGS. 8A-8D) was pre-incubated with the DI constructs at a molar ratio of ˜1:1 (500 μg/ml antibody and 25 μg/ml DI) before being added to normal human plasma either with or without excess phospholipid—which prevents the anticoagulant effect of the IgG. The results are expressed as ratio of clotting time in absence to that in the presence of excess phospholipid. The higher the ratio, the greater the biological effect exerted by the IgG-APS.
Plasma was thawed on ice, meanwhile the Coagulometer (CA-50, Sysmex) was allowed to warm and reagents were prepared.
Patient antibodies were purified using Protein G IgG purification kit (Pierce), as described by manufacturer's instructions. IgA antibodies are purified using Jacalin beads (Pierce), as per manufacturer's instructions. […]
Plasma was dispensed into glass vials (200 μl×2) and reagents, either low [phospholipid] […] When the clot reached 50% the timing was stopped and recorded. […]

[2] = test system: IgA binding to immobilised β2GPI; experiment: Competitive inhibition ELISA for IgA binding to β2GPI; set-up: species or system human; conditions: FIG. 9
Procedure: (§1) Competitive inhibition ELISA was carried out to test the ability of recombinant DI to inhibit binding of purified IgG from patients with APS to immobilised β2GPI. The assay was adapted from the standard β2GPI ELISA published by Ioannou et al., (BMC biotechnology 2006, 6:8) with the following amendments: the inhibitors were pre-incubated at concentrations ranging from 0 mg/ml to 200 μg/ml rather than 0 to 30 μM. Briefly, the test was carried out to test the ability of recombinant DI to inhibit binding of purified IgG from patients with APS to β2GPI coated on a plate. Recombinant DI was pre-incubated with patient serum prior to addition on the ELISA plate coated with β2GPI. Bound patient IgG was detected with an anti-human IgG HRP secondary antibody. Each sample was tested in duplicate.
Assays were carried out using identical methodology to Example 6 with the following alteration; an anti-human IgA secondary conjugated to HRP was used rather than an anti-human IgG secondary antibody.

[3] = test system: APS IgG-induced femoral vein thrombus formation; experiment: In vivo mouse blood clot model (blood vessel pinch model); set-up: species or system C57BL/6 mice; conditions: recombinant wild-type DI 40 μg intraperitoneally at 0 h and 48 h; 500 μg APS IgG; femoral vein pinch at 72 h; FIG. 10
Procedure: In vivo analysis of inhibition of thrombus formation by DI was carried out in a similar manner to those described within Ioannou et al., 2009, Journal of Thrombosis and Haemostasis, 7: 833-842, In vivo inhibition of antiphospholipid antibody-induced pathogenicity utilizing the antigenic target peptide domain I of beta2-glycoprotein I: proof of concept.
C57BL/6 mice (The Jackson Laboratory, Bar Harbor, Me., USA) were used for these studies.
NHS IgG and APS IgG mean protein G purified antibody obtained from Normal Healthy Subjects or APS patients respectively.
At time 0 h, 2 control groups were untreated, whereas 3 groups of mice were injected intraperitoneally with either recombinant wild-type DI (40 μg), PEGylated wild-type DI (20 μg) or PEG alone, in phosphate-buffered saline (PBS). After 60 min, 4 groups of mice were then treated intraperitoneally with 500 μg of APS IgG, while 1 group received 500 μg of NHS IgG, both in PBS. Both of these treatments were repeated at 48 h and 49 h respectively. The APS IgG dose was the minimal amount of APS IgG antibody required to increase thrombus size beyond two standard deviations (SDs) of the mean size induced by control NHS IgG post-injury. The APS IgG/DI molar ratios were 2.3:1, 1.15:1. […] A pinch stimulus was applied and the thrombus formation was visualised using a transilluminator and measured electronically. […]

[4] = test system: binding of aPLs to immobilised native antigen; conditions: aPLs from patients with pregnancy loss and with thrombosis; Ioannou et al. 2007; cited from earlier work
[5] = test system: aPL-induced venous thrombosis formation; conditions: mouse model of APS; Ioannou et al. 2009; cited from earlier work
[6] = test system: binding of purified IgG from patients with APS to immobilised β2GPI; experiment: Competitive inhibition ELISA (IgG); set-up: species or system human; conditions: 175 μg/ml of test protein
Procedure: as §1
Competitive inhibition data is generally expressed as retained binding of the antibody to the antigen on the plate in the presence of the inhibitor protein (DI-PEG or DI). […] Activities of PEGylated or non-PEGylated DI are given based on % inhibition. FIGS. 7A-7F show % inhibition data for pegylated and non-pegylated DI constructs.

- inhibition of IgA binding to β2GPI [2]: inhibits IgA binding to β2GPI
B1: wild-type DI: recombinant wild-type domain I of human β2GPI, SEQ ID NO: 2, approximately 7 kDa, unconjugated (protein, listed as Homo sapiens)
chain: GRTCPKPDDLPFSTVVPLKTFYEPGEEITYSCKPGYVSRGGMRKFICPLTGLWPINTLKCTPR
modifications: ends and bridges not checked
- inhibition of lupus anticoagulant effect (ratio of clotting time in absence to presence of excess phospholipid) [1]: inhibit this biological effect of IgG APS
- inhibition of thrombus formation (clot size) [3]: prevented the formation of large blood clots
- inhibition of binding of aPLs to immobilised native antigen [4]: inhibit the binding of aPLs
- inhibition of in vivo aPL-induced venous thrombosis formation [5]: inhibit in vivo aPL-induced venous thrombosis formation

- Retained Activity of D8S, D9G mutant-PEG (20 kDa) Vs D8S, D9G (%) ([6]; Patient 1 IgG): 87.8%
- Retained Activity of D8S, D9G mutant-PEG (20 kDa) Vs D8S, D9G (%) ([6]; Patient 2 IgG): 70.8%
- Retained Activity of D8S, D9G mutant-PEG (20 kDa) Vs D8S, D9G (%) ([6]; Patient 3 IgG): 83.3%
- Retained Activity of D8S, D9G mutant-PEG (20 kDa) Vs D8S, D9G (%) ([6]; Patient 4 IgG): 100%
- Retained Activity of D8S, D9G mutant-PEG (20 kDa) Vs D8S, D9G (%) ([6]; Patient 5 IgG): 64%
- Retained Activity of D8S, D9G mutant-PEG (20 kDa) Vs D8S, D9G (%) ([6]; Patient 6 IgG): 100%
B2: D8S, D9G mutant-PEG (20 kDa): D8S,D9G variant domain I (SEQ ID NO: 3) mono-PEGylated with 20 kDa PEG reagent (conjugate)
chain: B1 chain with D8S, D9G
modifications: ends and bridges not checked; also: mono-PEGylated with 20 kDa PEG reagent, site not given here

B3: DI(D8S/D9G): variant of domain I of human β2GP1, SEQ ID NO: 3, unconjugated (protein)
chain: B1 chain with D8S, D9G
modifications: ends and bridges not checked
- inhibition of binding of aPLs to immobilised native antigen [4]: inhibition is greater
- inhibition of in vivo aPL-induced venous thrombosis formation [5]: inhibit in vivo aPL-induced venous thrombosis formation

- Retained Activity of WT DI-PEG (20 kDa) Vs WT DI (%) ([6]; Patient 1 IgG): 98.5%
- Retained Activity of WT DI-PEG (20 kDa) Vs WT DI (%) ([6]; Patient 2 IgG): 74.9%
- Retained Activity of WT DI-PEG (20 kDa) Vs WT DI (%) ([6]; Patient 3 IgG): 88.3%
- Retained Activity of WT DI-PEG (20 kDa) Vs WT DI (%) ([6]; Patient 4 IgG): 91.5%
- Retained Activity of WT DI-PEG (20 kDa) Vs WT DI (%) ([6]; Patient 5 IgG): 70%
- Retained Activity of WT DI-PEG (20 kDa) Vs WT DI (%) ([6]; Patient 6 IgG): 91.9%
B4: WT DI-PEG (20 kDa): wild-type domain I β2GPI (SEQ ID NO: 2) mono-PEGylated across a disulfide bridge with 20 kDa PEG reagent 1 (conjugate, listed as Homo sapiens)
chain: B1 chain
modifications: not fully specified (bridges); ends and bridges not checked; also: mono-PEGylated across a disulfide bridge, Cys places not given here
